These substances were tested against F-actin (assay: co-sedimentation; F-actin co-sedimentation of HA-cortactin WT, 8KQ and 8KR; gray values of cortactin in pellets and supernatants).

ratio of gray value of cortactin in pellets and supernatants | Substance
0.781 | HA-tagged acetylation-mimetic cortactin (8KQ) (from UniProt Q60598 1-546) (natural protein)
1.03 | HA-tagged cortactin (from UniProt Q60598 1-546) (natural protein)
1.59 | HA-tagged non-acetylation-mimetic cortactin (8KR) (from UniProt Q60598 1-546) (natural protein)

— publication PMC6786517
